US20200010571A1 (Janssen / Centocor, published 2020)
Values joined by “and” are separate entries in the source; they are usually repeats but may differ in a detail not shown here. Identical values can stand only once.

Columns and labels:
[1] = biological target: T1, rhTNF-α (recombinant human, soluble) (human, UniProt P01375 77-233); assay: cell-based or functional assay
[2] = biological target: T1, rhTNF-α (recombinant human, soluble); assay: cell-based or functional assay; remark: listed apart in the source
[3] = biological target: T1, rhTNF-α (recombinant human, soluble); assay: cell-based or functional assay; remark: listed apart in the source
[4] = biological target: protease-resistant form of human transmembrane TNF-α (lacks amino acids Val1 to Pro12) overexpressed by K2 … (human, UniProt P01375 1-233); assay: cell-based or functional assay
[5] = biological target: native (endogenous) human TNF-α (human, UniProt P01375 77-233); assay: cell-based or functional assay
cynomolgus TNF-α [6] = biological target: T2, cynomolgus TNF-α (cynomolgus, UniProt P79337 77-233); assay: cell-based or functional assay
[7] = biological target: T3, human IL-17A (recombinant) (human, UniProt Q16552 24-155); assay: cell-based or functional assay
[8] = biological target: T3, human IL-17A (recombinant); assay: cell-based or functional assay; remark: listed apart in the source
[9] = biological target: T4, recombinant human IL-17A/F heterodimer (human, UniProt Q16552 24-155; Q96PD4 31-163); assay: cell-based or functional assay
[10] = biological target: T4, recombinant human IL-17A/F heterodimer; assay: cell-based or functional assay; remark: listed apart in the source
cynomolgus IL-17A [11] = biological target: T5, cynomolgus IL-17A (cynomolgus, UniProt Q16552 24-155 (human entry), limits assumed); assay: cell-based or functional assay
T5 chain: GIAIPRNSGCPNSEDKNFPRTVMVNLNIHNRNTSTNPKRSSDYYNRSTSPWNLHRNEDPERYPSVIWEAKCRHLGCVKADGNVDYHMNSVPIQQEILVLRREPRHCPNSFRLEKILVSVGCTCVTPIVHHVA

cynomolgus IL-17A [12] = biological target: T5, cynomolgus IL-17A; assay: cell-based or functional assay
recombinant human IL-17F = biological target: T6, recombinant human IL-17F (human, UniProt Q96PD4 31-163); assay: binding to rhIL-17A in the absence or presence of IL-17F
T6 sequence: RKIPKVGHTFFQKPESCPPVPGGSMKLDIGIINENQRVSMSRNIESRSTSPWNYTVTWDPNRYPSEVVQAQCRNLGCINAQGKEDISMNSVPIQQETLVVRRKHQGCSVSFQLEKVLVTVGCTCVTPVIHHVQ

mouse TNF-α = biological target: T7, mouse TNF-α (mouse, UniProt P06804 80-235); assay: SPR (Biacore 3000), mAb captured by anti-IgG Fc, antigen in solution
T7 sequence: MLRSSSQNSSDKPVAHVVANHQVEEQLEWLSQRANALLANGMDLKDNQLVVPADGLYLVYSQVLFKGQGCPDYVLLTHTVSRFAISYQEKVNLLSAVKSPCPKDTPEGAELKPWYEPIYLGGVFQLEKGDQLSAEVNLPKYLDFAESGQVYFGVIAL

rat TNF-α = biological target: T8, rat TNF-α (rat, UniProt P16599 80-235); assay: as above
T8 sequence: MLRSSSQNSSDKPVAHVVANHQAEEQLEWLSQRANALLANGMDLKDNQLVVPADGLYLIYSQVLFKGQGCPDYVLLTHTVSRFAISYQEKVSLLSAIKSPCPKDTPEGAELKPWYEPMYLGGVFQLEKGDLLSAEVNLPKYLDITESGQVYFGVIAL

[13] = biological target: T3, human IL-17A (recombinant); assay: competition ELISA: biotinylated rhIL-17A binding to plate-coated rhIL-17RA-Fc
cynomolgus TNF-α [14] = biological target: T2, cynomolgus TNF-α; assay: SPR (Biacore 3000), mAb captured by anti-IgG Fc, antigen in solution, 1:1 Langmuir
cynomolgus IL-17A [15] = biological target: T5, cynomolgus IL-17A; assay: as above
mouse IL-17A = biological target: T9, mouse IL-17A (mouse, UniProt Q62386 26-158); assay: as above
T9 sequence: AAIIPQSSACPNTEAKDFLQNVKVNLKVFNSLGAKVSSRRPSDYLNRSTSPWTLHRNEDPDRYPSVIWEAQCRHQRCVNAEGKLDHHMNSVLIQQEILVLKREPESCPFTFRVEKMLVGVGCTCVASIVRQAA

rat IL-17A = biological target: T10, rat IL-17A (rat, UniProt Q61453 18-150); assay: as above
T10 chain: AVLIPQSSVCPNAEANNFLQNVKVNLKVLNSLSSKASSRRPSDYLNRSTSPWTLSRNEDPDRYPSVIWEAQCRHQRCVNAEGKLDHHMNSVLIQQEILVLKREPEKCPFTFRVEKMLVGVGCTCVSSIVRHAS

[16] = biological target: T1, rhTNF-α (recombinant human, soluble); assay: SPR (Biacore 3000), mAb captured by anti-IgG Fc, antigen in solution, 25 C, 1:1 Langmuir
[17] = biological target: T3, human IL-17A (recombinant); assay: as above
[18] = biological target: T3, human IL-17A (recombinant); assay: competition ELISA: biotinylated rhIL-17A binding to plate-coated rhIL-17RA-Fc; Experiment 1; 95% CI 0.1171-0.1378
[19] = biological target: T3, human IL-17A (recombinant); assay: competition ELISA: biotinylated rhIL-17A binding to plate-coated rhIL-17RA-Fc; Experiment 2; 95% CI 0.1639-0.1853
[20] = biological target: T3, human IL-17A (recombinant); assay: competition ELISA: biotinylated rhIL-17A binding to plate-coated rhIL-17RA-Fc; Experiment 3; 95% CI 0.2415-0.2667

B1: mAb 8759 (bispecific anti-TNF-α/IL-17A antibody, IgG1, YTE) (bispecific antibody)
heavy 1: not shown
light 1: not shown
heavy 2: QVQLLESGGGLVQPGGSLRLSCAASGFTFSSYAMSWVRQAPGKGLEWVSTISLTSGFTYYADSVKGRFTISRDNSKNTLYLQMNSLRAEDTAVYYCARQLTLDVWGQGTLVTVSSASTKGPSVFPLAPSSKSTSGGTAALGCLVKDYFPEPVTVSWNSGALTSGVHTFPAVLQSSGLYSLSSVVTVPSSSLGTQTYICNVNHKPSNTKVDKKVEPKSCDKTHTCPPCPAPELLGGPSVFLFPPKPKDTLYITREPEVTCVVVDVSHEDPEVKFNWYVDGVEVHNAKTKPREEQYNSTYRVVSVLTVLHQDWLNGKEYKCKVSNKALPAPIEKTISKAKGQPREPQVYTLPPSREEMTKNQVSLTCLVKGFYPSDIAVEWESNGQPENNYKTTPPVLDSDGSFLLYSKLTVDKSRWQQGNVFSCSVMHEALHNHYTQKSLSLSPGK
light 2: QSVLTQPPSVSVAPGQTARISCSGDNLGDKYANWYQQKPGQAPVLVIYDDIDRPSGIPERFSGSNSGNTATLTISGTQAEDEADYYCGSYDFFLGMIVFGGGTKLTVLGQPKAAPSVTLFPPSSEELQANKATLVCLISDFYPGAVTVAWKADSSPVKAGVETTTPSKQSNNKYAASSYLSLTPEQWKSHRSYSCQVTHEGSTVEKTVAPTECS
[1]
  fold of IC50 against the parental anti-TNF-α antibodies mAb 9809 and mAb 6696; rhTNF-α-induced cytotoxicity in WEHI-164 cells: ~3 fold
[2]
  IC50 (nM); WEHI-164 cells cytotoxicity mediated by soluble rhTNF-α; Experiment 1: 1.2 nM
  IC50 (nM); WEHI-164 cells cytotoxicity mediated by soluble rhTNF-α; Experiment 2: 1.73 nM
  IC50 (nM); WEHI-164 cells cytotoxicity mediated by soluble rhTNF-α; Experiment 3: 0.478 nM
[3]
  IC50 (nM); KYM-1D4 cells, cytotoxicity mediated by soluble rhTNF-α; Experiment 1: 0.13 nM
  IC50 (nM); KYM-1D4 cells, cytotoxicity mediated by soluble rhTNF-α; Experiment 2: 0.261 nM
  IC50 (nM); KYM-1D4 cells, cytotoxicity mediated by soluble rhTNF-α; Experiment 3: 0.147 nM
[4]
  IC50 (nM); KYM-1D4 cells, cytotoxicity mediated by membrane bound human TNF-α; Experiment 1: 0.653 nM
  IC50 (nM); KYM-1D4 cells, cytotoxicity mediated by membrane bound human TNF-α; Experiment 2: 0.883 nM
  IC50 (nM); KYM-1D4 cells, cytotoxicity mediated by membrane bound human TNF-α; Experiment 3: 0.3 nM
[5]
  IC50 (nM); KYM-1D4 cells, cytotoxicity mediated by endogenous soluble TNF-α; Experiment 1: 0.283 nM
  IC50 (nM); KYM-1D4 cells, cytotoxicity mediated by endogenous soluble TNF-α; Experiment 2: 0.294 nM
  IC50 (nM); KYM-1D4 cells, cytotoxicity mediated by endogenous soluble TNF-α; Experiment 3: 0.143 nM
Cynomolgus TNF-α [6]
  IC50 (nM); Inhibition of cyno TNF-α mediated cytotoxicity in WEHI-164 cells; Experiment 1: 3.82 nM
  IC50 (nM); Inhibition of cyno TNF-α mediated cytotoxicity in WEHI-164 cells; Experiment 2: 14.9 nM
  IC50 (nM); Inhibition of cyno TNF-α mediated cytotoxicity in WEHI-164 cells; Experiment 3: 7.32 nM
[7]
  IC50 (µg/mL); Inhibition of native IL-17A mediated GROα production by NHDF; Experiment 1: 0.0755 µg/mL
  IC50 (µg/mL); Inhibition of native IL-17A mediated GROα production by NHDF; Experiment 2: 0.0692 µg/mL
  IC50 (µg/mL); Inhibition of native IL-17A mediated GROα production by NHDF; Experiment 3: 0.0653 µg/mL
[8]
  IC50 (µg/mL); Inhibition of native IL-17A mediated IL-6 production by NHDF; Experiment 1: 0.0478 µg/mL
  IC50 (µg/mL); Inhibition of native IL-17A mediated IL-6 production by NHDF; Experiment 2: 0.038 µg/mL
  IC50 (µg/mL); Inhibition of native IL-17A mediated IL-6 production by NHDF; Experiment 3: 0.0608 µg/mL
[9]
  IC50 (µg/mL); Inhibition of IL-17A/F mediated GROα production by NHDF; Experiment 1: 0.283 µg/mL
  IC50 (µg/mL); Inhibition of IL-17A/F mediated GROα production by NHDF; Experiment 2: 0.46 µg/mL
  IC50 (µg/mL); Inhibition of IL-17A/F mediated GROα production by NHDF; Experiment 3: 0.435 µg/mL
[10]
  IC50 (µg/mL); Inhibition of IL-17A/F mediated IL-6 production by NHDF; Experiment 1: 0.117 µg/mL
  IC50 (µg/mL); Inhibition of IL-17A/F mediated IL-6 production by NHDF; Experiment 2: 0.133 µg/mL
  IC50 (µg/mL); Inhibition of IL-17A/F mediated IL-6 production by NHDF; Experiment 3: 0.102 µg/mL
Cynomolgus IL-17A [11]
  IC50 (µg/mL); Inhibition of cyno IL-17A mediated GROα production by NHDF; Experiment 3: 0.142 µg/mL
Cynomolgus IL-17A [12]
  IC50 (µg/mL); Inhibition of cyno IL-17A mediated IL-6 production by NHDF; Experiment 3: 0.0476 µg/mL
Recombinant human IL-17F
  binding result: no binding
Mouse TNF-α
  binding result: no binding (tested: up to 100 nM)
Rat TNF-α
  binding result: no binding (tested: up to 100 nM)
[13]
  fold IC50 against the parental anti-IL-17A antibodies mAb 4782 and mAb 7206: ~3 fold
Cynomolgus TNF-α [14]
  Kd: 0.44 nM and 0.16 nM
  koff: 0.000114 s⁻¹
  kon: 259000 M⁻¹ s⁻¹ and 710000 M⁻¹ s⁻¹
Cynomolgus IL-17A [15]
  Kd: 0.0265 nM and 0.0277 nM
  koff: 3.59e-05 s⁻¹ and 4.4e-05 s⁻¹
  kon: 1.35e+06 M⁻¹ s⁻¹ and 1.59e+06 M⁻¹ s⁻¹
Mouse IL-17A
  Kd: 1.01 nM
  koff: 0.00101 s⁻¹
  kon: 999000 M⁻¹ s⁻¹
Rat IL-17A
  Kd: 13.9 nM
  koff: 0.00274 s⁻¹
  kon: 197000 M⁻¹ s⁻¹
[16]
  Kd: 0.0232 nM and 0.0192 nM
  koff: 4.07e-05 s⁻¹ and 3.76e-05 s⁻¹
  kon: 1.75e+06 M⁻¹ s⁻¹ and 1.96e+06 M⁻¹ s⁻¹
[17]
  Kd: 0.0244 nM and 0.0389 nM
  koff: 4.36e-05 s⁻¹ and 3.74e-05 s⁻¹
  kon: 1.78e+06 M⁻¹ s⁻¹ and 961000 M⁻¹ s⁻¹
[18]
  IC50: 0.127 µg/mL
[19]
  IC50: 0.174 µg/mL
[20]
  IC50: 0.254 µg/mL
